The values below come from patent US20090166224A1.

Assay [1] deals with … ZONE PROTEIN (human) (UniProt P20742). Nature of the assay: human serum on Con A/WGA/Jacalin column, lectin-specific displacer fraction, LC-MS/MS; grade = SEQUEST rank group (+ = ranks 1-5, ++++ = 16-20).
Assay [2] deals with ALPHA-2-HS-GLYCOPROTEIN (human) (UniProt P02765). Described as above.
Assay [3] concerns the target Pregnancy zone protein in fucosidase-treated serum (human) (UniProt P20742). Put plainly: fucosidase-treated serum on M-LAC column, displacer fraction, LC-MS/MS; smaller rank = more abundant.
Assay [4] shares this target. Nature of the assay: fucosidase-treated serum on M-LAC column, displacer fraction, extracted ion chromatogram of peptide … (so in the source).
Assay [5] addresses Beta-2-glycoprotein (human) (UniProt P02749). Nature of the assay: human serum on M-LAC column, displacer fraction, LC-MS/MS; smaller rank = more abundant.
In assay [6] the target is … ZONE PROTEIN (human) (UniProt P20742). Described as above.
Assay [7] deals with Alpha-1-acid-glycoprotein (human) (UniProt P02763). Described as above.
Assay [8] deals with APOLIPOPROTEIN A-I (human) (UniProt P02647). Described as above.
For assay [9], the target named is HAPTOGLOBIN-2 (human) (UniProt P00738). The description is as above.
The target in assay [10] is CERULOPLASMIN (human) (UniProt P00450). Nature of the assay: human serum on M-LAC column, displacer fraction, extracted ion chromatogram of peptide ….
Assay [11] addresses APOLIPOPROTEIN A-I (human) (UniProt P02647). Described as above.
Assay [12] concerns the target SERO… (human) (UniProt P02787). Put plainly: human serum on Con A/WGA/Jacalin column, lectin-specific displacer fraction, LC-MS/MS; grade = SEQUEST rank group (+ = ranks 1-5, ++++ = 16-20).
The target in assay [13] is IG ALPHA-1 CHAIN C REGION (human) (UniProt P01876). The description is as above.
Assay [14] has as its target Beta-2-glycoprotein in neuraminidase-treated serum (human) (UniProt P02749). Put plainly: neuraminidase-treated serum on M-LAC column, displacer fraction, LC-MS/MS; smaller rank = more abundant.
Assay [15] deals with Alpha-2HS-glycoprotein in neuraminidase-treated serum (human) (UniProt P02765). The description is as above.
The target of assay [16] is asialotransferrin (human) (UniProt P02787). The description is as above.
The target is the same in assay [17]. Put plainly: neuraminidase-treated serum on M-LAC column, displacer fraction, extracted ion chromatogram of peptide ….
Assay [18] has as its target IG ALPHA-1 CHAIN C REGION (human) (UniProt P01876). Nature of the assay: human serum on M-LAC column, Jacalin displacer fraction, LC-MS/MS; smaller rank = more abundant.
The target in assay [19] is Inter-alpha-trypsin inhibitor in fucosidase-treated serum (human). Put plainly: fucosidase-treated serum on M-LAC column, displacer fraction, extracted ion chromatogram of peptide ….
Assay [20] deals with CERULOPLASMIN (human) (UniProt P00450). Put plainly: human serum on Con A/WGA/Jacalin column, lectin-specific displacer fraction, LC-MS/MS; grade = SEQUEST rank group (+ = ranks 1-5, ++++ = 16-20).
The target in assay [21] is APOLIPOPROTEIN A-I (human) (UniProt P02647). The description is as above.
The target in assay [22] is Inter-alpha-trypsin inhibitor in fucosidase-treated serum (human). Put plainly: fucosidase-treated serum on M-LAC column, displacer fraction, LC-MS/MS; smaller rank = more abundant.
Assay [23] concerns the target Inter-alpha-trypsin inhibitor (human). Put plainly: human serum on M-LAC column, displacer fraction, LC-MS/MS; smaller rank = more abundant.
Assay [24] has the same target. Put plainly: human serum on M-LAC column, displacer fraction, extracted ion chromatogram of peptide ….
For assay [25], the target named is HAPTOGLOBIN-2 (human) (UniProt P00738). Described as above.

Sequence of Alpha-1-acid-glycoprotein (human) (P02763 19-201 limits assumed): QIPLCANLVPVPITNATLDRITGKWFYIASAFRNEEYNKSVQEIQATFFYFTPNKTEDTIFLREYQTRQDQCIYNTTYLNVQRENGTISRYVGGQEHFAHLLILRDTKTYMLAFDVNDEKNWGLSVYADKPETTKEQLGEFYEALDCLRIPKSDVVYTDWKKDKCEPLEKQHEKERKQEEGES
Sequence of Pregnancy zone protein in fucosidase-treated serum (human) (P20742 26-1482 limits assumed): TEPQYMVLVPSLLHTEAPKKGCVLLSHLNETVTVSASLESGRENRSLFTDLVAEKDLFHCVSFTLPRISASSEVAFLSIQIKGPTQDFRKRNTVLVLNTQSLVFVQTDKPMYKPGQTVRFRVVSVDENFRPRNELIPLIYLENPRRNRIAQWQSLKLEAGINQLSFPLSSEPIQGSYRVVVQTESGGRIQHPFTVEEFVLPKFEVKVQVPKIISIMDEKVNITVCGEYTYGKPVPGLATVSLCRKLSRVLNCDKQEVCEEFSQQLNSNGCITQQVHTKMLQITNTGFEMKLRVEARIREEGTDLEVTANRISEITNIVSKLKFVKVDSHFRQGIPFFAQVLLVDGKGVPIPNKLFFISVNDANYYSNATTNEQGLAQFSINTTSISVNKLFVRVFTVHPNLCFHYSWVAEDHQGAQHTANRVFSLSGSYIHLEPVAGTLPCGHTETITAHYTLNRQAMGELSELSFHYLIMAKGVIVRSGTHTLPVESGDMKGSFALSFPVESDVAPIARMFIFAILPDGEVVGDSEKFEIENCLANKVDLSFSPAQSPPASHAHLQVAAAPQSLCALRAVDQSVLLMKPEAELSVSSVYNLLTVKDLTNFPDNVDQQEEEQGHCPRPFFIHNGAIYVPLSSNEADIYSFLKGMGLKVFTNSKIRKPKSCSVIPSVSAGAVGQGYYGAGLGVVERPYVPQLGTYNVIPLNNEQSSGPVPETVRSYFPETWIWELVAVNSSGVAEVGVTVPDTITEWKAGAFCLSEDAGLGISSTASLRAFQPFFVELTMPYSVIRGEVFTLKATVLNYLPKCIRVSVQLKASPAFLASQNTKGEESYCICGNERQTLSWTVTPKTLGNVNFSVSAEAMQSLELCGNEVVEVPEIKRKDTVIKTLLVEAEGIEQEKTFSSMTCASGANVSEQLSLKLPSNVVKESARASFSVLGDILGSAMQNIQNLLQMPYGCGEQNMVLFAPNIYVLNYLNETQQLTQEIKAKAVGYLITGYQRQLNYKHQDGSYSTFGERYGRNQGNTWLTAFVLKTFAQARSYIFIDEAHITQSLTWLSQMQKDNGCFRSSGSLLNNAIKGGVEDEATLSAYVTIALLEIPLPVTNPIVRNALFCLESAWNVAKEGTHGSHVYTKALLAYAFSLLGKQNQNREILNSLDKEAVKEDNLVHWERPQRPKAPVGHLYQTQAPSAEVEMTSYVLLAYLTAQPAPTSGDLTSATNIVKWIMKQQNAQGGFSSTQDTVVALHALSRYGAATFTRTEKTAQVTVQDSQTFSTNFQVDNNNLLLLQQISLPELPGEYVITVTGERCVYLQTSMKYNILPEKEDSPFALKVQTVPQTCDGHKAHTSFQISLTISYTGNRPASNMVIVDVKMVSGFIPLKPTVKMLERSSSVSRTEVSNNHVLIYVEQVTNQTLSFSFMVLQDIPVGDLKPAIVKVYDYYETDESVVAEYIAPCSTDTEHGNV
Sequence of … ZONE PROTEIN (human) (P20742 26-1482 limits assumed): as above
Sequence of HAPTOGLOBIN-2 (human) (P00738 19-406 limits assumed): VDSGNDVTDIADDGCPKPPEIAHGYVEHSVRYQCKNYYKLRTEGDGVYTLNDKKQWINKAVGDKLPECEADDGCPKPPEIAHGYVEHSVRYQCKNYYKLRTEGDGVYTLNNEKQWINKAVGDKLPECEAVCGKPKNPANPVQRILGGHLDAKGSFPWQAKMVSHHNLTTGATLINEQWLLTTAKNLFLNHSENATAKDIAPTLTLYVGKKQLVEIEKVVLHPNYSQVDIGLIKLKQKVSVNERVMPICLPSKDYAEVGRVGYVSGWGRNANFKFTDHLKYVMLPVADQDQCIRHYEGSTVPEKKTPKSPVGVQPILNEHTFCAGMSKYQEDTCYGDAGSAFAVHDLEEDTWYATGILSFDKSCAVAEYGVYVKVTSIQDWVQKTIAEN
Sequence of Beta-2-glycoprotein (human) (P02749 20-345 limits assumed): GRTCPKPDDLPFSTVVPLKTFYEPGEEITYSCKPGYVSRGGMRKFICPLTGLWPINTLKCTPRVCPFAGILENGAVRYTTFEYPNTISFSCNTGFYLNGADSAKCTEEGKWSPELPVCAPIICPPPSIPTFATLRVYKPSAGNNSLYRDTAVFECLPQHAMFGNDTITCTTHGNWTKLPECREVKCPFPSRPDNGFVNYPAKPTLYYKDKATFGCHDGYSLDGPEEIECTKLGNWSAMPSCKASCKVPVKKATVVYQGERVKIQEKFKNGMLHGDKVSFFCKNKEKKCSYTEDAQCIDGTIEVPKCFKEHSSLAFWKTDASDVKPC
Sequence of UniProt P00450 (P00450 20-1065 limits assumed): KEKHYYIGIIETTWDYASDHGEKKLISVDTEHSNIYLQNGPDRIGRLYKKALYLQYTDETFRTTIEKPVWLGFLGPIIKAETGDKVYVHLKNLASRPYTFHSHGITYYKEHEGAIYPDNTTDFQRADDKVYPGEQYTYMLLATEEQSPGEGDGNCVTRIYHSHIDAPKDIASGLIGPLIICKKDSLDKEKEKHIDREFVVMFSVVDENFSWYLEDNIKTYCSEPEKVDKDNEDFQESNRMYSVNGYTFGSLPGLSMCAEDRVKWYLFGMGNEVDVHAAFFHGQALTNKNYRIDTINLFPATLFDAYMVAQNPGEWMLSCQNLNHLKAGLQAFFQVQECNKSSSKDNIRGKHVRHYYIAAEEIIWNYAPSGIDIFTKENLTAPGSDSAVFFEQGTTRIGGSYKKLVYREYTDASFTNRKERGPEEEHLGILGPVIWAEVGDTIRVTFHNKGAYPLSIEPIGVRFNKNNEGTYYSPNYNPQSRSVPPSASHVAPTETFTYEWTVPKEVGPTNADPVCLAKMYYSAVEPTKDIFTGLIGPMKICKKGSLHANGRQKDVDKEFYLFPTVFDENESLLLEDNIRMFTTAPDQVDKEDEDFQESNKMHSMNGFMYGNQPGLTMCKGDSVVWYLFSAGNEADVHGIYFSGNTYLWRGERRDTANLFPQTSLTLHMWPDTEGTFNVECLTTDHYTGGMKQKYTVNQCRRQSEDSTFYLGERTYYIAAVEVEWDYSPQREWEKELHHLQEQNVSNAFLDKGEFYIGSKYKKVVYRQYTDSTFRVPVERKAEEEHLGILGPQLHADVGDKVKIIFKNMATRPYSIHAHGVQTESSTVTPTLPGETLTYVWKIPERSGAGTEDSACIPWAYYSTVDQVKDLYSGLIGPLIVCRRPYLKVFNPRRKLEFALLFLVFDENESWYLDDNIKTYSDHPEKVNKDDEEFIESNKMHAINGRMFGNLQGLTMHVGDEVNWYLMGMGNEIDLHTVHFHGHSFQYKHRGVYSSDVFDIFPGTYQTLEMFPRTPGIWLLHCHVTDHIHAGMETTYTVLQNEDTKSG
Sequence of UniProt P02647 (P02647 25-267 limits assumed): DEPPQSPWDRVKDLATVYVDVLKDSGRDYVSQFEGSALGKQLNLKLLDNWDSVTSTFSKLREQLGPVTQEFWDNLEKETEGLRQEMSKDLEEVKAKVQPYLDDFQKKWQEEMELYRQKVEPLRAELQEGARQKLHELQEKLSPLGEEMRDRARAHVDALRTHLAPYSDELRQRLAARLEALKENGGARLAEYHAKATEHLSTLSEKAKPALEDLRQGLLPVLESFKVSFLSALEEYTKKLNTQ
Sequence of asialotransferrin (human) (P02787 20-698 limits assumed): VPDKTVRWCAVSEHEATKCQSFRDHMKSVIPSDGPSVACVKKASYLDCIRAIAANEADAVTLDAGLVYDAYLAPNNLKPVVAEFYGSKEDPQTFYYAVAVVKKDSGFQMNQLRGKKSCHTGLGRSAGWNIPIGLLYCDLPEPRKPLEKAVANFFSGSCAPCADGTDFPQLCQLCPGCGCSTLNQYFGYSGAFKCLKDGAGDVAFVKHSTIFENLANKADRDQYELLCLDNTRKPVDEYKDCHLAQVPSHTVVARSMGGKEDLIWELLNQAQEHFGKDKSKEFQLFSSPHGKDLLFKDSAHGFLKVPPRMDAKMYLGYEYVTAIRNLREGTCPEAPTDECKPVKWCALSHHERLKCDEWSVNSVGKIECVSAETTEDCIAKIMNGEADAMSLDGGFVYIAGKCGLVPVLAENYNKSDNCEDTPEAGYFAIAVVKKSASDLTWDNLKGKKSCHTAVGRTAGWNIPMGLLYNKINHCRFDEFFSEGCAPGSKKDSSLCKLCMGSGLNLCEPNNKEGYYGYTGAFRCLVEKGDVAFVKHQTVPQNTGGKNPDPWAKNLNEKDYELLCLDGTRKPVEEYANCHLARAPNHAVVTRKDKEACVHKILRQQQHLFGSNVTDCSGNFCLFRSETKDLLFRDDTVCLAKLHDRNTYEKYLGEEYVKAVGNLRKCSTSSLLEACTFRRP
Sequence of Inter-alpha-trypsin inhibitor (human) (P19823 55-702): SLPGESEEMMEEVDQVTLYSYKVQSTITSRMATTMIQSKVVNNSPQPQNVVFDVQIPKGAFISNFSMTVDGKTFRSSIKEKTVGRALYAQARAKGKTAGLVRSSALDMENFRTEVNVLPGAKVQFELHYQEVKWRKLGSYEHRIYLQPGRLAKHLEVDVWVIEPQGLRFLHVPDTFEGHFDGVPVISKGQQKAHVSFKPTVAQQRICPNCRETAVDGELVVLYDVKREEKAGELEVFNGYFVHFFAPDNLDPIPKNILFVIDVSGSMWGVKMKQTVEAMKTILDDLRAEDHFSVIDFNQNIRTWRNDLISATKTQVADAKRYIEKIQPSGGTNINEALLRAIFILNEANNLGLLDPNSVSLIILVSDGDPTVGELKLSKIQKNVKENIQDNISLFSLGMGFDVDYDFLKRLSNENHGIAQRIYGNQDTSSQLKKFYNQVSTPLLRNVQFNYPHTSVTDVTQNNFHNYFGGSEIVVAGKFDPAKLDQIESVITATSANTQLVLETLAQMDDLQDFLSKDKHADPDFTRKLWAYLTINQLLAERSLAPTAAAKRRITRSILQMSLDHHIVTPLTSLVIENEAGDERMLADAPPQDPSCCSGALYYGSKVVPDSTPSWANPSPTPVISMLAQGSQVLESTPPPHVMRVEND

As for “wheat germ agglutinin (WGA), agarose-bound (from UniProt P10968 27-197)”, the SEQUEST ranking (relative abundance in the WGA displacement fraction) fell in the range of 6 to 10 rank in assay [1] and 11 to 15 rank in assay [2]. The SEQUEST rank in displacer fraction came to 17 in assay [3]; 52 in assay [5]; 7 in assay [6]; 7 in [7]; 10 in assay [8]; 4 in [9]. The peptide peak area in displacer fraction in assay [4] amounted to 5.2e+06 counts; in assay [10] it was 9.1e+06 counts; in assay [11] it was 6e+07 counts.

For “Jacalin lectin, agarose-bound (from UniProt P18670 1-133; P18671 1-20)”, the SEQUEST ranking (relative abundance in the Jacalin displacement fraction) is 16 to 20 rank in [12], 1 to 5 rank in [13] and 6 to 10 rank in assay [2]. The SEQUEST rank in displacer fraction is 23 in [14]; 7 in [15]; 1 in [16]; 20 in assay [5]; 21 in assay [7]; 4 in assay [8]. The values for the SEQUEST rank in displacer fraction in assay [9] and in assay [18] were 9 and 1, respectively. Further, the peptide peak area in displacer fraction in assay [17] (peptide at M/Z 530.2) came to 2.4e+07 counts; in assay [17] (peptide at M/Z 790.1), 8.3e+06 counts; in [10], 2e+06 counts; in [11] it was 4e+07 counts.

As to “Concanavalin A (Con A), agarose-bound (from UniProt P02866 30-281)”, the peptide peak area in displacer fraction worked out at 0 counts in assay [19]; 1.6e+07 counts in [4]; 500000 counts in assay [24]; 7.8e+06 counts in assay [10]; 1.2e+07 counts in assay [11]; 4e+07 counts in [25]. Moreover, the SEQUEST ranking (relative abundance in the Con A displacement fraction) in assay [1] fell in the range of 16 to 20 rank; in assay [12], 1 to 5 rank; in [20], 16 to 20 rank; in [21] it was 11 to 15 rank. Moreover, the SEQUEST rank in displacer fraction in assay [22] stood at 13; in assay [3] it was 25; in assay [14], 24; in [15], 31; in assay [16], 2; in assay [5], 20. The SEQUEST rank in displacer fraction is 34 in assay [6]; 22 in assay [23]; 33 in [7]; 19 in [8]; 7 in [9].
